Publication PMC6930080

Molecular target: ATP synthase subunit α (Euglena gracilis)
Assay: cryo-EM structure; native ATP synthase dimer with bound IF1, co-purified as one complex from E. gracilis mitochondria; 25 mM HEPES/KOH pH 7.5, 25 mM KCl, 15 mM MgOAc2, 2 mM DTT, 0.05% β-DDM; maps: membrane region 2.82 Å, F1/c-ring rotational states 1-3 3.04, 3.14 and 3.92 Å, rotor 3.3 Å, peripheral stalk tip 3.82 Å, consensus dimer 4.32 Å

ATPase inhibitory factor 1 (IF1) (natural protein)
percent of particles of rotational state 3 that contain IF1: 34%
